The source of these data is publication PMC5216119, “An allosteric conduit facilitates dynamic multisite substrate recognition by the SCF^Cdc4 ubiquitin ligase” (Nature Communications, 2017).

Positions count from the first letter of the chain named. Where two headings read alike, the source gives them in different places. Square brackets hold non-standard residues; d marks the D form. Ends that are not written are not given here. Peptide text beside a SMILES is read from it. pT = C[C@@H](OP(=O)(O)O)[C@H](N)C(=O)O; pS = N[C@@H](COP(=O)(O)O)C(=O)O

Assay [1] addresses T1, R655Q Cdc4^WD40 (Saccharomyces cerevisiae, UniProt P07834, R655Q).
T1 construct: Cdc4^WD40 (residues 367-744) was expressed from pET-Sumo (Invitrogen); His-SUMO (pET-Sumo vector) (N, cleaved yes); made in house; host or cells: Escherichia coli (host printed only for the NMR samples)
Briefly: Intrinsic Trp fluorescence binding, R655Q Cdc4^WD40. Conditions: in vitro Trp fluorescence. Set-up: species or system yeast.

The target of assay [2] is T2, R664Q Cdc4^WD40 (Saccharomyces cerevisiae, UniProt P07834, R664Q).
T2 construct: Cdc4^WD40 (residues 367-744) was expressed from pET-Sumo (Invitrogen); His-SUMO (pET-Sumo vector) (N, cleaved yes); made in house; host or cells: Escherichia coli (host printed only for the NMR samples)
Type of assay: binding, yeast. The following applies: in vitro Trp fluorescence. As to the method:
We assessed the contribution of the allosteric pocket to substrate interactions by mutation of positively charged Arg655 and Arg664 residues, both of which are required for SCF-I2 inhibition. We generated Arg655Gln and Arg664Gln substitution mutants to minimize disruptive steric effects on the allosteric pocket and WD40 domain.
The binding affinities of three different peptides (Sic1^20pS69, Sic1^20pS80 and Sic1^20pS69/S80) for wild-type and mutant (Arg664Gln) Cdc4^WD40 were measured by intrinsic Trp fluorescence-binding experiments. The measurements were carried out by using an ATF 105 spectrometer (AVIV Instruments, Lakewood, NJ) equipped with an automatic titrator. The binding of the peptide fragments were monitored by using intrinsic tryptophan fluorescence with an excitation wavelength of 298 nm and an emission wavelength of 366 nm. All measurements were performed in 50 mM Tris, 150 mM NaCl, 5 mM DTT, pH 7.5 at 20 °C. The concentration of Cdc4 was 0.5 μM for all measurements. […] Association constants were calculated using the formula Ka=1/Kd. Prism 4.0 software (GraphPad Software, San Diego, CA) was used for statistical analysis (non-paired Student t test), and P values <0.05 were considered significant. Each experiment was repeated at least three times.

Assay [3] addresses T3, R664Q Cdc4^WD40 (yeast, UniProt P07834 367-744, R664Q).
T3 construct: Cdc4, yeast F-box protein, WD40 domain, residues 367-744, with Arg664Gln in the allosteric pocket; also called Arg664Gln Cdc4^WD40; mutant (Arg664Gln) Cdc4^WD40; source: E. coli, purified as the wild type (Ni-NTA, Ulp protease, Ni-NTA, Superdex 200)
T3 sequence (looked up): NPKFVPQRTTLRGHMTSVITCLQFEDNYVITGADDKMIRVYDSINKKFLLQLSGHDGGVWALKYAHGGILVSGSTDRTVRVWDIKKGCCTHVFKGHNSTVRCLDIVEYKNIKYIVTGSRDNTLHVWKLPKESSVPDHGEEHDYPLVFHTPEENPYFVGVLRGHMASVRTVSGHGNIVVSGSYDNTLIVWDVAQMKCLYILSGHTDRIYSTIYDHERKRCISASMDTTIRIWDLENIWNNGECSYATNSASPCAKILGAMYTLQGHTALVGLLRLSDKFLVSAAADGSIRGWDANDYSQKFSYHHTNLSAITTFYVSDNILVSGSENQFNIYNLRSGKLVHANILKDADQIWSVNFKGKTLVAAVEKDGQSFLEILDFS
Briefly: other fluorescence titration; intrinsic Trp fluorescence (excitation 298 nm, emission 366 nm); 0.5 μM Cdc4, ligand titrated; 50 mM Tris, 150 mM NaCl, 5 mM DTT, pH 7.5, 20 °C; 1:1 stoichiometry assumed.

For assay [4], the target named is Cdc4^WD40 (isolated WD40 domain of the yeast F-box protein Cdc4, residues 367-744), wild type (yeast) (UniProt P07834). Described as above.
Assay [5] concerns the target T4, R655Q Cdc4^WD40 (yeast, UniProt P07834 367-744, R655Q).
T4 construct: Cdc4, yeast F-box protein, WD40 domain, residues 367-744, with Arg655Gln in the allosteric pocket; also called Arg655Gln Cdc4^WD40; source: E. coli, purified as the wild type (Ni-NTA, Ulp protease, Ni-NTA, Superdex 200)
T4 sequence (looked up): T3 sequence (looked up) with R289Q, Q298R
Described as above.

The next assay addresses Cdc4. The following applies: Sic1 phosphorylated on between 4 and 6 low-affinity CPD sites; read-out: Kd of high-affinity Sic1-Cdc4 interaction; cited from earlier work. The text has this:
WD40 domains, and the related Kelch β-propeller domains, mediate protein interactions in many contexts and together form the largest domain family in the human genome. WD40 domain proteins are a predominant class of substrate receptor in the ubiquitin-proteasome system, found in F-box proteins and other subunits of the cullin-RING (CRL) ubiquitin ligases. The WD40 domain of the yeast F-box protein Cdc4 (Cdc4^WD40) recognizes substrates via phosphorylated motifs termed Cdc4 phosphodegrons (CPDs). One of the best characterized Cdc4 substrates is the cyclin dependent kinase inhibitor ...

The target of assay [6] is T5, Cdc4^WD40 (isolated WD40 domain of the yeast F-box protein Cdc4, residues 367-744), wild type (yeast, UniProt P07834 367-744).
T5 construct: Cdc4, yeast F-box protein, WD40 domain, residues 367-744; For the NMR experiments the protein was U-[15N,2H], Ile-delta1-[13CH3], Met-epsilon-[13CH3] labelled (IM-labelled); also called wt Cdc4^WD40; Cdc4 WD40 domain; source: E. coli BL21(DE3) codonPlus, purified (Ni-NTA, Ulp protease, Ni-NTA, Superdex 200)
T5 sequence (looked up): T3 sequence (looked up) with Q298R
Briefly: NMR titration; 2D 13C-1H TROSY HMQC at 10 °C on 200 μM IM-labelled Cdc4^WD40 with increasing concentrations of unlabelled ligand; 100% D2O, 50 mM Na2HPO4 pH 8.0, 150 mM NaCl, 2 mM DTT. The following applies: both partners purified.

For the next assay, the target named is Cdc4-Skp1. The following applies: read-out: Kd for pSic1-Cdc4-Skp1 by intrinsic tryptophan (Trp) fluorescence; cited from earlier work.
Assay [7] addresses T5, Cdc4^WD40 (isolated WD40 domain of the …). Kind of assay: ITC; 20 °C; cell 30 μM Cdc4^WD40, syringe 100 μM pSic1; 50 mM Na2HPO4 pH 7.2, 150 mM NaCl, 2 mM β-mercaptoethanol; single-site binding model. Conditions: both partners purified.
Assay [8] shares this target. Kind of assay: other fluorescence titration; intrinsic Trp fluorescence (excitation 298 nm, emission 366 nm); 0.5 μM Cdc4, ligand titrated; 50 mM Tris, 150 mM NaCl, 5 mM DTT, pH 7.5, 20 °C; 1:1 stoichiometry assumed. The following applies: both partners purified.
Assay [9] has as its target T3, R664Q Cdc4^WD40. The assay is described as above. Conditions: both partners purified.

T1 sequence (P07834 367-744 R655Q): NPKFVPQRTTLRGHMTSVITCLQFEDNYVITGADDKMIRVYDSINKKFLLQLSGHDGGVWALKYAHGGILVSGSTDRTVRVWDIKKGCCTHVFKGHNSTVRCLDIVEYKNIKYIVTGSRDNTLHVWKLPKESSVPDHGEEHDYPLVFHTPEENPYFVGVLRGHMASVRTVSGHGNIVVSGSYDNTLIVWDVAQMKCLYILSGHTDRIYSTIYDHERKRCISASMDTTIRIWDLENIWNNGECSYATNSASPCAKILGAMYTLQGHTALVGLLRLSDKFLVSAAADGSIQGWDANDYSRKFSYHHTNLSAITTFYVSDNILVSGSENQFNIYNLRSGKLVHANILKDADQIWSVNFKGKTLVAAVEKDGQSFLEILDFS

Turning to `CC(=O)NCC(=O)N[C@@H](CC(C)C)C(=O)N[C@@H](CC(C)C)C(=O)N[C@H](C(=O)N1CCC[C@H]1C(=O)N1CCC[C@H]1C(=O)N[C@@H](CCC(N)=O)C(=O)N[C@@H](CO)C(=O)NCC(N)=O)[C@@H](C)OP(=O)(O)O` [CycE] (Ac-GLL[pT]PPQSG-NH2; N-terminus and C-terminus assumed), the “change of affinity for Arg655Gln Cdc4^WD40 versus wild-type” value on R655Q Cdc4^WD40 [1] is reported as “did not significantly reduce”. Moreover, the “change of affinity for Arg664Gln Cdc4^WD40 versus wild-type” value on R664Q Cdc4^WD40 [2] is listed as “did not significantly reduce”.
Regarding “CycE phosphopeptide (singly phosphorylated high-affinity CPD peptide derived from cyclin E)”, the values for the Kd (with R664Q Cdc4^WD40 [3]; in assay [4]; in the assay with R655Q Cdc4^WD40 [5]) were 1470 nM, 2210 nM and 2900 nM, respectively.

B1: Sic1: cyclin dependent kinase inhibitor, Cdc4 substrate; here phosphorylated on 4 to 6 CPD sites (protein, UniProt P38634 1-284, looked up)
Protein SIC1: MTPSTPPRSRGTRYLAQPSGNTSSSALMQGQKTPQKPSQNLVPVTPSTTKSFKNAPLLAPPNSNMGMTSPFNGLTSPQRSPFPKSSVKRTLFQFESHDNGTVREEQEPLGRVNRILFPTQQNVDIDAAEEEEEGEVLLPPSRPTSARQLHLSLERDEFDQTHRKKIIKDVPGTPSDKVITFELAKNWNNNSPKNDARSQESEDEEDIIINPVRVGKNPFASDELVTQEIRNERKRAMLRENPDIEDVITYVNKKGEVVEKRRLTDEEKRRFKPKALFQSRDQEH
modifications: phosphorylated
notes: here phosphorylated on 4 to 6 CPD sites
On to B1, for which the Kd – broadly, a measure of binding affinity in units of concentration – at Cdc4 is around 1000 nM.

B2: Ash1^18pT286/pT290/pS294 triphosphopeptide (unlabelled) (peptide)
peptide: AWSI[pT]PPV[pT]PPM[pS]PPTNR
notes: Ash1 transcriptional repressor, 18-residue peptide printed as AWSIpTPPVpTPPMpSPPTNR; the text says derived from Ash1 residues 283-299; the unlabelled form was used for NMR; also called triply phosphorylated Ash1 peptide; the peptide phosphorylated on all three CPDs
For the molecule B2, in [6], the binding result is “binds”.

B3: pSic1 (N-terminal targeting region of Sic1, residues 1-90, phosphorylated to completion by Cln2-Cdc28-Cks1 kinase) (domain or fragment, yeast, UniProt P38634 1-90, looked up)
chain: MTPSTPPRSRGTRYLAQPSGNTSSSALMQGQKTPQKPSQNLVPVTPSTTKSFKNAPLLAPPNSNMGMTSPFNGLTSPQRSPFPKSSVKRT
modifications: phosphorylated to completion by Cln2-Cdc28-Cks1 kinase; contains 7 of the 9 Sic1 CPD sites (the residues are not listed)
notes: also called pSic1 (1-90); pSic1^1-90
Take B3: the Kd at Cdc4-Skp1 is 600 nM; in assay [7], 800 ± 120 nM; in assay [8], 1300 nM; with R655Q Cdc4^WD40 [5] (both partners purified) it was 4160 nM; in the assay with R664Q Cdc4^WD40 [9], 4960 nM.
